# Patent publication US20240343803A1 (SHANDONG SIMCERE BIOPHARMACEUTICAL, published 2024)
# T1: Fusion protein of extracellular domain of human TIGIT and mouse IgG2a Fc fragment (human TIGIT ECD-mFc) (human)
# T1 construct: The entry includes the signal peptide (limits not recoverable) and the mouse IgG2a Fc
# T1 chain: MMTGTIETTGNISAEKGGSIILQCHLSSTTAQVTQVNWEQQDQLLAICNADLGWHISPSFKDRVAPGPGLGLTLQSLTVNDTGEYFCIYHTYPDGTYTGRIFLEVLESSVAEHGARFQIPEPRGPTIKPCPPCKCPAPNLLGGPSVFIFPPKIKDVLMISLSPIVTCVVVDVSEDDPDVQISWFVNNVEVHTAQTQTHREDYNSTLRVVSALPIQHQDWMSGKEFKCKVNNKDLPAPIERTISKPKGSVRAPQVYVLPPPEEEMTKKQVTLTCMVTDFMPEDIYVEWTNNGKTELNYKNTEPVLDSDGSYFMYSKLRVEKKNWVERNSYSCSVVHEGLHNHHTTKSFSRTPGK
# T2: Full-length human TIGIT on CHO-K1 cells (CHO-K1 human TIGIT) (human, UniProt Q495A1 22-244)
# T2 construct: NCBI XP_024309156.1; the entry includes the signal peptide (limits not recoverable); The strain (high, medium, low) is named under assay; also called high expression strain 1D2; medium expression strain 2D10
# T2 sequence: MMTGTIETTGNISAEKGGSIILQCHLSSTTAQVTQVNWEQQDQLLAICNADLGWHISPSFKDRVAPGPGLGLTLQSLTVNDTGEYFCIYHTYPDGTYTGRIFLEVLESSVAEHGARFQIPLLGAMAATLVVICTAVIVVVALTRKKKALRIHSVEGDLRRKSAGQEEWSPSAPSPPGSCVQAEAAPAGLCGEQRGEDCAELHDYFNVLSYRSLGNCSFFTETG
# T3: cynomolgus monkey PVRIG (Novoprotein, Cat NO. C09B) (cynomolgus monkey, UniProt A0A2K5WVV8 41-171)
# T3 construct: also called cynomolgus monkey PVRIG protein
# T3 sequence: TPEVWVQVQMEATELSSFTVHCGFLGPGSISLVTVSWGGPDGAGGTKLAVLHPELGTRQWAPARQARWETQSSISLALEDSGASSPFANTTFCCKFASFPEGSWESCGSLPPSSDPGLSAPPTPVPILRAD
# T4: human PVRIG-his (AcroBiosystems, Cat NO. PVG-H52H4) (human, UniProt Q6DKI7 41-171, limits assumed)
# T4 construct: also called human PVRIG protein
# T4 sequence (looked up): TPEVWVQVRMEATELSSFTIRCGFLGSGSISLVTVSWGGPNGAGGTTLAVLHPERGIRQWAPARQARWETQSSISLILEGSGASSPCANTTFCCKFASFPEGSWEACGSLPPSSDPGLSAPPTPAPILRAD
# Tests used:
# [1] = biological target: T5, Fusion protein of extracellular domain of cynomolgus monkey TIGIT and mouse IgG2a Fc fragment (cynomolgus … (cynomolgus monkey)); assay: ELISA, cynomolgus monkey TIGIT ECD-mFc
# T5 construct: The entry includes the signal peptide (limits not recoverable) and the mouse IgG2a Fc
# Procedure: (§1) After discarding the coating solution, the plate was added with 5% skim milk powder (Sangon Biotech, CAT #A600669-0250)-PBS, 250 μL/well, and incubated at 37° C. for 2-4 hours. […] The enzyme-labeled plate was then washed with 0.05% Tween 20-PBS for 3 times on the Microplate Washer, added with tested antibodies diluted to 13 nM with 1% BSA (diluted by 3-fold serial dilution for 12 concentration points), 50 μL/well, and incubated at 37° C. for 1.5-2 hours. The plate was washed with 0.05% Tween 20-PBS for 3 times on the Microplate Washer, then added with HRP enzyme-labeled antibodies (Merck, CAT #AP113P) diluted with 1% BSA (Sangon Biotech, CAT #A500023-0100)-PBS at a dilution ratio of 1:5000, 50 μL/well, and incubated at 37° C. for 1 hour. After washing 3 times with 0.05% Tween 20-PBS on the Microplate Washer, the plate was added with TMB chromogenic solution (KPL, CAT #52-00-03), 50 μL/well, and incubated at room temperature for 7-10 minutes. 1M HCL, 50 μL/well, was then added into the plate to terminate the reaction, and the OD450 nm was read by a microplate reader (Biotek, Powerwave HT). […] (b) The binding activity of anti-TIGIT chimeric antibodies to CHO-K1 human TIGIT (cells with high, medium and low expression levels) and CHO-KI cynomolgus monkey TIGIT detected by FACS.
# (§2) The affinity of the above humanized antibodies with human TIGIT ECD-His is detected by BIAcore, and with reference to the methods of Example 4 (a), (b), and (d), the binding activity of the above humanized antibodies to human TIGIT ECD-mFc, CHO-K1 human TIGIT, CHO-K1 cynomolgus monkey TIGIT and cynomolgus monkey TIGIT ECD-mFc, and the effect of the humanized antibodies blocking the binding between human TIGIT ECD-mFc and CHO-K1 CD155 are detected, the results are shown in Table 18.
# [2] = biological target: T1, Fusion protein of extracellular domain …; assay: ELISA, human TIGIT ECD-mFc
# Procedure: as §1, §2
# [3] = biological target: T6, Fusion protein of extracellular domain of human TIGIT and human IgG1 Fc fragment (human TIGIT ECD-hFc) (human); assay: blocking of TIGIT ECD-hFc binding to CHO-K1 CD155 cells
# T6 construct: The entry includes the signal peptide (limits not recoverable) and the human IgG1 Fc
# In short: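 Inhibition was expressed as IC50 values derived from the inhibition curves of a cell-based ELISA. CHO-K1 CD155 cells were cultured overnight, fixed, and blocked with 5% skim milk-PBS. Antibodies were first premixed for 0.5 h with human TIGIT ECD-hFc at a working concentration of 30 ng/mL, and the mixture was then added to the cells for 1.5-2 h at 37° C. Bound TIGIT was detected with HRP secondary antibody (1:5000, 37° C, 1 h) and TMB, and read as OD450 nm.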
# [4] = biological target: T7, Full-length cynomolgus monkey TIGIT on CHO-K1 cells (CHO-K1 cynomolgus monkey TIGIT) (cynomolgus monkey); assay: cell binding, CHO-K1 cynomolgus monkey TIGIT
# T7 construct: NCBI XP_015300911.1
# Procedure: (§3) The collected cells were washed once with PBS (Hyclone, CAT #SH30256), resuspended to 2×10⁵/50 μL with 1% BSA-PBS. The antibodies were diluted to 80 nM with 1% BSA-PBS (diluted by 3-fold serial dilution for 12 concentration points). The 50 μL cells were then mixed with 50 μL diluted antibodies, and then incubated at 4° C. for 60 minutes. […] After washing twice with PBS, the cell samples were resuspended with 1% BSA-PBS, 100 μL/well and then analyzed by flow cytometry (BD, Canto II). […] [0298] (c) The effect of anti-TIGIT chimeric antibodies blocking the interaction between Bio-CD155-His and CHO-K1 human TIGIT high expression cell strains detected by FACS
# as §2
# [5] = biological target: T2, Full-length human TIGIT on CHO-K1 cells …; assay: cell binding, CHO-K1 human TIGIT high expression strain
# Procedure: as §3, §2
# [6] = biological target: T3, cynomolgus monkey PVRIG (Novoprotein, …); assay: ELISA, antigen coated
# Procedure: (§4) The ELISA plate was pre-coated with 100 μL/well of 0.5 μg/mL human PVRIG-his (AcroBiosystems, Cat NO. PVG-H52H4) or cynomolgus monkey PVRIG (Novoprotein, Cat NO. C09B). The tested anti-PVRIG humanized antibodies were serially diluted (initial concentration 3 nM, 3-fold serial dilution), added into the plate (100 μL/well) and incubated with shaking at room temperature for 1.5 hours. […] A HRP substrate, TMB (Thermo, Cat NO. 34029) was added into wells after washing the plate again for color development. After adding a termination solution to terminate the reaction, the absorbance value was read by a microplate reader (MD i3×). An antibody binding curve was drawn with concentration of antibodies as the abscissa and the corresponding OD value as the ordinate. The EC50 value was calculated by using a Four Parameter Logistic Fit (GraphPadPrism9). The smaller the EC50 value, the stronger the ability of the antibodies binds to human or cynomolgus monkey PVRIG. The binding effect of the humanized antibodies was normalized to the corresponding parental antibodies. If the percentage value is higher than 100%, the binding effect of humanized antibodies is better than that of parental antibody.
# [7] = biological target: T4, human PVRIG-his (AcroBiosystems, Cat …); assay: ELISA, antigen coated
# Procedure: as §4
# [8] = biological target: T4, human PVRIG-his (AcroBiosystems, Cat …); assay: SPR (BIAcore), antibody captured on Protein A chip, human PVRIG-His analyte
# Procedure: Biacore was used to detect the specific binding between anti-PVRIG antibody and human PVRIG protein. Protein A chip was used in the BIAcore assay. The time required for the chip to capture the diluted antibody and saturate the binding antigen to reach Rₘₐₓ (Maximum binding capacity, 50 RU) was measured by manual run. […] The affinity of antibody for antigen was measured by multi-cycle kinetics. In each cycle, the antibodies were injected prior to the injection of gradient concentraions of PVRIG proteins allowing the occurrence of antibody-antigen association and dissociation After each cycle, the Protein A chip was regenerated by Glycine, pH 1.5 (to remove the proteins on the chip). The affinity of antibody for antigen was calculated by BIAcore T200 analysis software.
# The methods refer to Example 10.
# [9] = biological target: T4, human PVRIG-his (AcroBiosystems, Cat …); assay: competition ELISA, PVRIG-His coated, competitor human PVRL2-mFc
# Procedure: The ELISA plate was pre-coated with 100 μL/well of 0.5 μg/mL human PVRIG-his protein (AcroBiosystems, Cat NO. PVG-H52H4). The tested anti-PVRIG antibodies were diluted from the highest concentration of 16 nM (two-fold concentration). The diluted antibodies were mixed with 18 ng/ml human PVRL2-mFc (AcroBiosystems, Cat NO. CD2-H5257) in equal volume, added into the plate (100 μL/well), and incubated with shaking at room temperature for 2.0 hours. […] A HRP substrate, TMB (Thermo, Cat NO. 34029) was added into wells after washing the plate again for color development. After adding a termination solution to terminate the reaction, the absorbance value was read by a microplate reader (MD i3×). An inhibiting curve was drawn with concentration of antibodies as the abscissa and the corresponding OD value as the ordinate. The IC50 value was calculated by using a Four Parameter Logistic Fit (GraphPadPrism9). The smaller the IC50 value, the stronger the ability of the antibodies inhibits the binding between PVRIG and PVRL2. The positive and negative controls are the same as in Example 8.
# The methods refer to Example 11. The inhibiting activity of the humanized antibodies was normalized to the corresponding parental antibodies. If the percentage value is higher than 100%, the inhibiting effect of humanized antibodies is better than that of parental antibodies.
# T7 sequence (chain, as listed by the source limits assumed): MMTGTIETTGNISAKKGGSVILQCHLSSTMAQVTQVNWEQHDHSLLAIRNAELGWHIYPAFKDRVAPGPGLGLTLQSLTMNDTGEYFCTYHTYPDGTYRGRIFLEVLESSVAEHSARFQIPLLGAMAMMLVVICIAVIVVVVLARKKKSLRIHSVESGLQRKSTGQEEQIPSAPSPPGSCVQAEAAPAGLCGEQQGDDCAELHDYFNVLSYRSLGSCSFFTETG
# T5 sequence (chain, as listed by the source limits assumed): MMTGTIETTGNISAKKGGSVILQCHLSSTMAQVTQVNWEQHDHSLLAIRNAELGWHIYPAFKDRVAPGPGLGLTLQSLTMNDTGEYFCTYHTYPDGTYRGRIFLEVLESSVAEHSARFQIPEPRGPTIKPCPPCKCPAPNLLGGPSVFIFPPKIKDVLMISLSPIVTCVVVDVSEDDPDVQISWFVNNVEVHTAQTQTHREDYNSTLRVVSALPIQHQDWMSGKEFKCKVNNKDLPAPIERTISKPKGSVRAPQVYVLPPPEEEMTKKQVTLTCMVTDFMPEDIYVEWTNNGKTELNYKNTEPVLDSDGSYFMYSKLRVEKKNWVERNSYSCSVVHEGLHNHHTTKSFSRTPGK
# T6 sequence (chain, as listed by the source limits assumed): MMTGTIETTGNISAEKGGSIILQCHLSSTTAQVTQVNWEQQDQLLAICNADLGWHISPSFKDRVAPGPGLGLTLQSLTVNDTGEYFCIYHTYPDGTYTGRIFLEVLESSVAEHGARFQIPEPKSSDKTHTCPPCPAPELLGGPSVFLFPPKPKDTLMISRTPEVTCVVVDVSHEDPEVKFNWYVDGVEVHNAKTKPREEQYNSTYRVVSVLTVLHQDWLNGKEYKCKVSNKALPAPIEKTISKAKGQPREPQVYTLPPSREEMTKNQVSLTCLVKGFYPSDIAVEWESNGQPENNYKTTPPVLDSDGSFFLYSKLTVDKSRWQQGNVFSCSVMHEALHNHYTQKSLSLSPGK
Binder,EC50 [1] [pM],EC50 [2] [pM],IC50 [3] [pM],EC50 [4] [pM],EC50 [5] [pM],EC50 [6] [pM],EC50 [7] [pM],Kd [8] [pM],koff [8] [s⁻¹],kon [8] [M⁻¹ s⁻¹],% relative activity (IC50) parental antibody/test antibody [9] [%],IC50 [9] [pM]
"TIGIT-002-H3L1 (antibody, V domains shown, Humanized anti-TIGIT antibody) VH: EVQLQESGPGLVKPSETLSLTCAVSGYSITSDSWNWIRQPPGKKLEWMGYISYSGNTYYNPSLKSRITISRDTSKNQFSLKLSSVTAADTAVYYCARLDFSNYGGAVDYWGQGTTVTVSS VL: DIVMTQTPLSLSVTPGQPASISCKASQNVRTAVAWYLQKPGQSPQLMIYSASYRYTGVPDRFSGSGSGTDFTLKISRVEAEDVGVYYCQQYYTTPWTFGGGTKVEIK",25.3,12,459,232,20.4,–,–,–,–,–,–,–
"TIGIT-002-H4L2 (antibody, V domains shown, Humanized anti-TIGIT antibody) VH: EVQLQESGPGLVKPSETLSLTCAVSGYSITSDSWNWIRQPPGKKLEYIGYISYSGNTYYNPSLKSRVTISRDTSKNQFSLKLSSVTAADTAVYYCARLDFSNYGGAVDYWGQGTTVTVSS VL: DIVMTQTPLSLSVTPGQPASISCKASQNVRTAVAWYQQKPGQSPQLMIYSASYRYTGVPDRFSGSGSGTDFTLKISRVEAEDVGVYYCQQYYTTPWTFGGGTKVEIK",25.4,17.9,440,47.4,29.4,–,–,–,–,–,–,–
"TIGIT-002-H3L2 (antibody, V domains shown, Humanized anti-TIGIT antibody) VH: EVQLQESGPGLVKPSETLSLTCAVSGYSITSDSWNWIRQPPGKKLEWMGYISYSGNTYYNPSLKSRITISRDTSKNQFSLKLSSVTAADTAVYYCARLDFSNYGGAVDYWGQGTTVTVSS VL: DIVMTQTPLSLSVTPGQPASISCKASQNVRTAVAWYQQKPGQSPQLMIYSASYRYTGVPDRFSGSGSGTDFTLKISRVEAEDVGVYYCQQYYTTPWTFGGGTKVEIK",21.8,17,394,113,32.9,–,–,–,–,–,–,–
"TIGIT-002-H4L1 (antibody, V domains shown, Humanized anti-TIGIT antibody) VH: EVQLQESGPGLVKPSETLSLTCAVSGYSITSDSWNWIRQPPGKKLEYIGYISYSGNTYYNPSLKSRVTISRDTSKNQFSLKLSSVTAADTAVYYCARLDFSNYGGAVDYWGQGTTVTVSS VL: DIVMTQTPLSLSVTPGQPASISCKASQNVRTAVAWYLQKPGQSPQLMIYSASYRYTGVPDRFSGSGSGTDFTLKISRVEAEDVGVYYCQQYYTTPWTFGGGTKVEIK",20.6,16.4,445,54.3,25.3,–,–,–,–,–,–,–
"PVRIG-A105-H5 (Fc fusion, humanized variant of PVRIG-A105; also called A105.VH5; not shown: constant part not restated for the humanized forms; parents are VHH-hinge-CH2-CH3 of human IgG1; detected by anti-human) EVQLVESGGGLVQPGGSLRLSCAASGRTFDRHTMTWFRQAPGKEREFVATASRIPGDTYYVDSVKGRFTISRDNAKNSLYLQMNSLRAEDTAVYYCAATSAYCSEVDCYEKGSWYDNWGQGIQVTVSS",–,–,–,–,–,37.7,67.8,818,0.00091,1.11e+06,114,647
